Test results as given in patent US20030199423A1.
Each block holds one substance with its values, some of them ahead of it.

Columns and labels:
[1] = molecular target: LFA-1 (CD18/CD11a) (human) (UniProt P20701); test: inhibition of SKW3 cell adhesion to coated soluble ICAM-R, peptide 1-2 mg/ml
[2] = molecular target: LFA-1 (CD18/CD11a) (human) (UniProt P20701); test: inhibition of CD18-dependent adhesion of PMA-treated JY cells to coated shICAM-R, antibody 10 µg/ml; defines total CD18-dependent binding
[3] = molecular target: LFA-1 (CD18/CD11a) (human) (UniProt P20701); test: inhibition of neutrophil adhesion to coated ICAM-R/Ig, antibody 15 µg/ml

LFA-1 (CD18/CD11a) (human), sequence (P20701 26-1170, chain 1 of 2): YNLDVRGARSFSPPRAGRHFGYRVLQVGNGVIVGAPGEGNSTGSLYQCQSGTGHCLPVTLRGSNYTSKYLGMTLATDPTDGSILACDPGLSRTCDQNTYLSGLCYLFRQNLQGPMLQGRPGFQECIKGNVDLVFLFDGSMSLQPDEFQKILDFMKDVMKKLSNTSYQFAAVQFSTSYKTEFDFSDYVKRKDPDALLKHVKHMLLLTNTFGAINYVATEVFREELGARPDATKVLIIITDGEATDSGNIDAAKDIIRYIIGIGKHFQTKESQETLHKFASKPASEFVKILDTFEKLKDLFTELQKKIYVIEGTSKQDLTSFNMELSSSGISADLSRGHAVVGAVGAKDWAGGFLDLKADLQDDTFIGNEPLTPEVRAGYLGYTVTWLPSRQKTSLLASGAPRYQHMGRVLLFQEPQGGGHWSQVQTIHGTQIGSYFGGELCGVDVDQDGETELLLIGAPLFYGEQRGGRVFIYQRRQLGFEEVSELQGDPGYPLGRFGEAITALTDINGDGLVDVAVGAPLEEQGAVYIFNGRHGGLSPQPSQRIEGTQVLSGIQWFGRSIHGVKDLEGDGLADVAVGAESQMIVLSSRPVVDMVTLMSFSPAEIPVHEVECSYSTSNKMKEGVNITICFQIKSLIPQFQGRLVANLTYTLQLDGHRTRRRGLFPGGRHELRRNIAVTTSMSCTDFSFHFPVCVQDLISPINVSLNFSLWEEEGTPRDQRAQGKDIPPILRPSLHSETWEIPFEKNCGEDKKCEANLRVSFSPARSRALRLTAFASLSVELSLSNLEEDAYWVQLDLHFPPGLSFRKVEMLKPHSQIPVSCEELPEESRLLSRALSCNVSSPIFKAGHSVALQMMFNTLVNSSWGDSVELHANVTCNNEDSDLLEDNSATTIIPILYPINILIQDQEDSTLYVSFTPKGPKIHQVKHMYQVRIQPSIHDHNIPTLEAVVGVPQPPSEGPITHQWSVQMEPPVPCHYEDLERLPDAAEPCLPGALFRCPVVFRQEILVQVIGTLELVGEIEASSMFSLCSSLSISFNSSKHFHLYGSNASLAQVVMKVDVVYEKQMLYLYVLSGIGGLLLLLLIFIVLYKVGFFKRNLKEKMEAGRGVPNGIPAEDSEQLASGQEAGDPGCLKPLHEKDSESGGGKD
LFA-1 (CD18/CD11a) (human), sequence (P05107 23-769, chain 2 of 2, further chain): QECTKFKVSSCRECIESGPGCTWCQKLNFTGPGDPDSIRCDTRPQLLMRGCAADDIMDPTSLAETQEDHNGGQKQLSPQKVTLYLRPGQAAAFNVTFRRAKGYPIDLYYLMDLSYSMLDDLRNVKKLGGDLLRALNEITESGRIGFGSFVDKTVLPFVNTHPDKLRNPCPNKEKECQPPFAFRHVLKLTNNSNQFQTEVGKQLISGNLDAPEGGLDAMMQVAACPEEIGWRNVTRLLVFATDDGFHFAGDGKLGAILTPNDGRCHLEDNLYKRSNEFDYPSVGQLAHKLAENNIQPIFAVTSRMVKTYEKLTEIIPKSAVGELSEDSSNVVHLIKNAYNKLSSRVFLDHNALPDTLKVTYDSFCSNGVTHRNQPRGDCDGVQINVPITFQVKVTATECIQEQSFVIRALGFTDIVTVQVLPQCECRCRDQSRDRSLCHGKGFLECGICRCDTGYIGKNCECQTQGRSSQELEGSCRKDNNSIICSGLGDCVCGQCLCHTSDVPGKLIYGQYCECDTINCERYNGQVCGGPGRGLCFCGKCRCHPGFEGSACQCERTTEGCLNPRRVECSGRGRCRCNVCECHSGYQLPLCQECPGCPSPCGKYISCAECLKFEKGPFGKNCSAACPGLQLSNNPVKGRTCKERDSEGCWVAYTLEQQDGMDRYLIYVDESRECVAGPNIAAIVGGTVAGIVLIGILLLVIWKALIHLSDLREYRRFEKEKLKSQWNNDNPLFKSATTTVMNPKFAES

% Inhibition [1]: 26%
Substance: ICAM-R domain 1 peptide (NGSQI), residues 72-76

Inhibition (%) [2]: 100%
Substance: anti-CD18 monoclonal antibody 60.3

percent inhibition of neutrophil binding to ICAM-R [3]: 50%
Substance: anti-CD11a monoclonal antibody TS1/22
